Experimental findings from US20240091360A1 (LENTIGEN TECHNOLOGY, published 2024) are described below.

In assay [1] the target is T1, ROR1-Fc peptide (R&D System) (UniProt Q01973 30-403).
T1 construct: Bought detection reagent (R&D Systems), detected with anti Fc-AF647; not shown: Fc part of the bought reagent, not described
The experiment in a line: flow cytometry; transduced primary human T cells stained with ROR1-Fc, then anti-Fc Alexa Flour 647. From the text: Half million CAR T cells were washed in cold AutoMACS buffer supplemented with 0.5% bovine serum albumin (Miltenyi Biotec, Bergisch Gladbach, Germany) and stained with CAR detection reagents. For ROR CAR, cells were stained with ROR1-Fc peptide (R&D System, Minneapolis, MN), followed by anti Fc-AF647 conjugate(Jackson ImmunoResearch, West Grove, PA). For MSLN CAR, cells were stained with MSLN-His (R&D System, Minneapolis, MN) […] anti-His-APC (Miltenyi Biotec). The 7-Aminoactinomycin D staining (7-AAD, BD Biosciences, San Jose, CA) was added to exclude dead cells. CD4 antibody labeled with VioBlue fluorochrome or CD8 antibody labeled with VioGreen fluorochrome was used to separate CD4 and CD8 population. Non-transduced cells (UTD) were used as a negative control. Cells were washed twice, resuspended in 200 μl running buffer, and acquired by flow cytometry. Flow cytometric analysis was performed on a MACSQuant® 10 Analyzer (Miltenyi Biotec), and data plots were generated using FlowJo software (Ashland, OR).
ROR1 and MSLN mono CARs and tandem CARs without mIL7 were included as control (FIG. 2A). CAR sequences were further incorporated into a third-generation lentiviral vectors and transduced into human primary T cells at MOI 40, to generate the ROR1 and/or MSLN CAR T cells under the control of the mammalian EF-1α promoter. Un-transduced T cells derived from same donor (UTD) were used as negative control. Surface expression of CARs with ROR1 binder on transduced T cells was measured by flow cytometry using ROR1-Fc, followed by staining with anti-Fc Alexa Flour 647. CARs with MSLN scFv surface expression was detected by MSLN-His followed by anti-His APC. […] Quantified CAR positive percentage and mean fluorescence intensity (MFI) of ROR1 binders (FIG. 2B, 2D) and MSLN binders (FIG. 2C, 2E) were plotted as bar figure.

The target in assay [2] is T2, ROR1.Fc (Sino Biologicals) (UniProt Q01973 30-403).
T2 construct: not shown: Fc part of the bought reagent, not described
The experiment in a line: flow cytometry of transduced primary human T cells at day 8; ROR1.Fc and anti-human Fc.AF647 are the listed reagents. The protocol:
Flow cytometric analysis was performed as previously described (12, 15, 16). All cell staining reagents for flow cytometry were from Miltenyi Biotec, unless otherwise noted. These include anti-ROR1.AF647, mouse IgG1 control. APC, anti-CD45.PE, anti-CD8. Viogreen, anti-CD3.VioBlue, anti-CD45. VioBright FITC, anti-CD45RA. APC-Vio770, anti-CD62L.PE, anti-PD1.PE-Vio770, Streptavidin. PE (Miltenyi Biotec). Cell viability solution (7-AAD), BD Pharm Lysing buffer were purchased from BD Biosciences. Anti-ROR1.AF647 was from R&D systems. ROR1.Fc was from Sino Biologicals. Anti-human Fc.AF647 was from Jackson ImmunoResearch. Countbright absolute counting beads were from ThermoFisher Scientific. Anti-TGFβRII. Biotin was from Biolegend. Stained cells were analyzed using the MACSQuant Analyzer 10 flow cytometer (Miltenyi Biotec).
Background: Flow cytometry measures light scatter and fluorescence of single cells or particles in a stream.

In assay [3] the target is T3, CD276-His (Acro biosystems) (UniProt Q5ZPR3-2 29-245, limits assumed).
T3 construct: Bought detection reagent, detected with anti-His PE
T3 sequence (looked up): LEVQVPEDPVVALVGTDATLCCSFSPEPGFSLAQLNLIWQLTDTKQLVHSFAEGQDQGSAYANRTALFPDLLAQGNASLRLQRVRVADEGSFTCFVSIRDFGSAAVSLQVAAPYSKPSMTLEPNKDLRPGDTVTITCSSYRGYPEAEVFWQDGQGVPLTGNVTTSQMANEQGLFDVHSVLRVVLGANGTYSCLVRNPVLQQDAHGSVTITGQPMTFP
The experiment in a line: flow cytometry; transduced primary human T cells co-stained with ROR1-Fc and CD276-His, then anti-Fc and anti-His conjugates. From the text:
Half million CAR T cells were washed in cold AutoMACS buffer supplemented with 0.5% bovine serum albumin (Miltenyi Biotec, Bergisch Gladbach, Germany) and stained with CAR detection reagents. For ROR1 CAR, cells were stained with ROR1-Fc peptide (R&D System, Minneapolis, MN), followed by anti Fc-AF647 conjugate(Jackson ImmunoResearch, West Grove, PA). For CD276 CAR or CCR, cells were stained with CD276-His (Acro biosystems, Newark, De), followed by anti-His PE (Miltenyi Biotech). The 7-Aminoactinomycin D staining (7-AAD, BD Biosciences, San Jose, CA) was added to exclude dead cells. CD4 antibody labeled with VioBlue was used to separate CD4 and CD8 population. Non-transduced cells (UTD) were used as a negative control. Cells were washed twice, resuspended in 200 μl running buffer, and acquired by flow cytometry. […]
CD276 specific targeting-scFvs were first evaluated in CAR context in vitro, ROR1 CAR was included as control. […] Surface expression of CD276 CARs with ROR1 binder on transduced T cells was measured by flow cytometry using CD276-His, followed by staining with anti-His PE. ROR1 CAR expression was determined as previously described. […] The target specific cytotoxicity of CD276 and/or ROR1 CARs was measured by luciferase based overnight killing assy. […]

Assay [4] addresses T4, FolR1-Fc peptide (Acro Biosystems) (UniProt P15328 25-233).
T4 construct: Bought detection reagent, detected with anti Fc-AF647; not shown: Fc part of the bought reagent, not described
In words: flow cytometry; transduced primary human T cells stained with FolR1-Fc, then anti-Fc Alexa Flour 647. From the text: 0.32E6 CAR-T cells were washed in cold AutoMACS buffer supplemented with 0.5% bovine serum albumin (Miltenyi Biotec, Bergisch Gladbach, Germany) and stained with CAR detection reagents. For ROR CAR, cells were stained with ROR1-Fc peptide (R&D Systems, Minneapolis, MN) and FolR1 CAR were stained with FolR1-Fc peptide (Acro Biosystems, Newark, DE) followed by anti Fc-AF647 conjugate (Jackson ImmunoResearch, West Grove, PA). The 7-Aminoactinomycin D staining (7-AAD, BD Biosciences, San Jose, CA) was added to exclude dead cells. CD4 antibody labeled with VioBlue fluorochrome was used to separate CD4 and CD8 population. Processed mouse bone marrow and spleen were stained with human CD3 VioBlue and human CD45 FITC (Miltenyi Biotec) to determine the presence of CAR-T. To assess for memory phenotype, cells were stained with CD62L PE and CD45RA APC-Vio700 (Miltenyi Biotec). Non-transduced cells (UTD) were used as a negative control. Cells were washed twice, resuspended in 200 μl running buffer, and acquired by flow cytometry. […]
To test CAR-T functionality in vitro, ROR1 or FolR1 mono CARs with MMP-2, MMP-9, HPSE or PH-20 as booster elements were characterized. […] Surface expression of CARs with ROR1 or FolR1 binder on transduced T cells was measured by flow cytometry using ROR1-Fc or FolR1-Fc respectively, followed by staining with anti-Fc Alexa Flour 647.

T1 sequence (Q01973 30-403): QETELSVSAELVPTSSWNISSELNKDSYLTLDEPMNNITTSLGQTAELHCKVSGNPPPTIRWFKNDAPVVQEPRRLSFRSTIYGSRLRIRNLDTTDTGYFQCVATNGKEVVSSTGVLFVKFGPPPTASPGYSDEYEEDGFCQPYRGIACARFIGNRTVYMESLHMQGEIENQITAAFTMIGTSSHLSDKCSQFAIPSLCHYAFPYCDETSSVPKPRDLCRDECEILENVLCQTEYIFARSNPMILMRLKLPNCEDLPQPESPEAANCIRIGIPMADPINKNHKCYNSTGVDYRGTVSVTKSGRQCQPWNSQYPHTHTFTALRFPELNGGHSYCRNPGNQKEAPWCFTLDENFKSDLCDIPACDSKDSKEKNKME
T2 sequence (Q01973 30-403): as above
T4 sequence (P15328 25-233): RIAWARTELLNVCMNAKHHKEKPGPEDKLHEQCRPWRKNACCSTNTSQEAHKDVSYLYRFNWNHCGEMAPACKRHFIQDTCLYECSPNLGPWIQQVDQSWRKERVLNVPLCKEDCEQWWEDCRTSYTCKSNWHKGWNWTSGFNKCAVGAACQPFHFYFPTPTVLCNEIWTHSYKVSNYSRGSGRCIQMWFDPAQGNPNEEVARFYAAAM

B1: CAR LTG2529 ROR1scFv9 IgG4 CD8 BBz (other)
chain: QAAQVQLQQSGAEVKKPGSSVKVSCKASGGTFSSYAISWVRQAPGQGLEWMGWINPNSGGTNYAQRFQGRVTMTRDTSISTAYMELSRLRSDDTAVYYCASYNDAFDIWGQGTLVTVSSGGGGSGGGGSGGGGSNFMLTQPHSVSESPGKTVTISCTRSSGSIASNYVQWYQQRPGSAPTIVIYEDDQRPSGVPDRFSGSIDTSSNSASLTISGLQSEDEADYYCQSYEPGNGVFGGGTKVTVLAAAESKYGPPCPPCPIYIWAPLAGTCGVLLLSLVITLYCKRGRKKLLYIFKQPFMRPVQTTQEEDGCSCRFPEEEEGGCELRVKFSRSADAPAYQQGQNQLYNELNLGRREEYDVLDKRRGRDPEMGGKPRRKNPQEGLYNELQKDKMAEAYSEIGMKGERRRGKGHDGLYQGLSTATKDTYDALHMQALPPR
notes: Chimeric antigen receptor on lentivirally transduced primary human T cells; The entry includes the N-terminal leader peptide; also called ROR1 CAR LTG2529; ROR1-LTG2529
B1: the binding result in assay [1] is given as “binds”; in assay [2] it was “binds”; in assay [3], “no binding”.

B2: CAR D0233 MSLN M1-4S ROR1 scFv9 IgG4 CD8 BBz (other)
chain: EVQLVQSGGGLVQPGGSLRLSCAASGFTFDDYAMHWVRQAPGKGLEWVSGISWNSGSIGYADSVKGRFTISRDNAKNSLYLQMNSLRAEDTALYYCAKDLSSVAGPFNYWGQGTLVTVSSGGGGSGGGGSGGGGSSSELTQDPAVSVALGQTVRITCQGDSLRSYYASWYQQKPGQAPVLVIYGKNNRPSGIPDRFSGSSSGNTASLTITGAQAEDEADYYCNSRDSSGNHLVFGGGTQLTVLGGGGGSGGGGSGGGGSGGGGSGGGGSQAAQVQLQQSGAEVKKPGSSVKVSCKASGGTFSSYAISWVRQAPGQGLEWMGWINPNSGGTNYAQRFQGRVTMTRDTSISTAYMELSRLRSDDTAVYYCASYNDAFDIWGQGTLVTVSSGGGGSGGGGSGGGGSNFMLTQPHSVSESPGKTVTISCTRSSGSIASNYVQWYQQRPGSAPTIVIYEDDQRPSGVPDRFSGSIDTSSNSASLTISGLQSEDEADYYCQSYEPGNGVFGGGTKVTVLAAAESKYGPPCPPCPIYIWAPLAGTCGVLLLSLVITLYCKRGRKKLLYIFKQPFMRPVQTTQEEDGCSCRFPEEEEGGCELRVKFSRSADAPAYQQGQNQLYNELNLGRREEYDVLDKRRGRDPEMGGKPRRKNPQEGLYNELQKDKMAEAYSEIGMKGERRRGKGHDGLYQGLSTATKDTYDALHMQALPPR
notes: Tandem CAR on transduced primary human T cells; also called MSLN-ROR1 scFv9-IgG4 hinge-CD8TM-41BB-CD3ζ; tandem CAR D0233
B2: in assay [1], the binding result was “binds”.

B3: CAR D0351 Farle CD8 BBz (other)
chain: MEVQLVESGGGVVQPGRSLRLSCSASGFTFSGYGLSWVRQAPGKGLEWVAMISSGGSYTYYADSVKGRFAISRDNAKNTLFLQMDSLRPEDTGVYFCARHGDDPAWFAYWGQGTPVTVSSASTKGGGGGSGGGGSGGGGSDIQLTQSPSSLSASVGDRVTITCSVSSSISSNNLHWYQQKPGKAPKPWIYGTSNLASGVPSRFSGSGSGTDYTFTISSLQPEDIATYYCQQWSSYPYMYTFGQGTKVEIKRTAAATTTPAPRPPTPAPTIASQPLSLRPEACRPAAGGAVHTRGLDFACDIYIWAPLAGTCGVLLLSLVITLYCKRGRKKLLYIFKQPFMRPVQTTQEEDGCSCRFPEEEEGGCELRVKFSRSADAPAYQQGQNQLYNELNLGRREEYDVLDKRRGRDPEMGGKPRRKNPQEGLYNELQKDKMAEAYSEIGMKGERRRGKGHDGLYQGLSTATKDTYDALHMQALPPR
notes: FolR1 CAR (Farletuzumab scFv) on transduced primary human T cells, PGK promoter; also called Farle-CD8H&TM-41BB-CD3ζ; mono-FolR1 D0351
Consider B3, for which the binding result in assay [4] was “binds”.

B4: CAR LTG2527 ROR1 IgG4 CD8 BBz (other)
chain: QEQLVESGGRLVTPGGSLTLSCKASGFDFSAYYMSWVRQAPGKGLEWIATIYPSSGKTYYATWVNGRFTISSDNAQNTVDLQMNSLTAADRATYFCARDSYADDGALFNIWGPGTLVTISSGGGGSGGGGSGGGGSELVLTQSPSVSAALGSPAKITCTLSSAHKTDTIDWYQQLQGEAPRYLMQVQSDGSYTKRPGVPDRFSGSSSGADRYLIIPSVQADDEADYYCGADYIGGYVFGGGTQLTVTGAAAESKYGPPCPPCPIYIWAPLAGTCGVLLLSLVITLYCKRGRKKLLYIFKQPFMRPVQTTQEEDGCSCRFPEEEEGGCELRVKFSRSADAPAYQQGQNQLYNELNLGRREEYDVLDKRRGRDPEMGGKPRRKNPQEGLYNELQKDKMAEAYSEIGMKGERRRGKGHDGLYQGLSTATKDTYDALHMQALPPR
notes: CAR on transduced primary human T cells; also called ROR1 R12 -IgG4 hinge-CD8TM-41BB-CD3ζ; R12-ROR1 LTG2527
With B4, the binding result in assay [2] was “binds”.

B5: D0290 ROR1 scFv9-IgG4 hinge-CD8TM-41BB-CD3ζ (other)
chain: QAAQVQLQQSGAEVKKPGSSVKVSCKASGGTFSSYAISWVRQAPGQGLEWMGWINPNSGGTNYAQRFQGRVTMTRDTSISTAYMELSRLRSDDTAVYYCASYNDAFDIWGQGTLVTVSSGGGGSGGGGSGGGGSNFMLTQPHSVSESPGKTVTISCTRSSGSIASNYVQWYQQRPGSAPTIVIYEDDQRPSGVPDRFSGSIDTSSNSASLTISGLQSEDEADYYCQSYEPGNGVFGGGTKVTVL
notes: CAR on transduced primary human T cells; also called CAR D0290; mono ROR1 CAR; not shown: IgG4 hinge, CD8 TM, 4-1BB, CD3ζ
B5: the binding result in assay [1] is “binds”.
